Test results: patent US20160200789A1, “IL4 CONJUGATED TO ANTIBODIES AGAINST EXTRACELLULAR MATRIX COMPONENTS” (PHILOGEN S.P.A., priority 2013, published 2016)

B1: SIP (F8): antibody F8 in SIP format (scFv fused to epsilon-CH4 domain of human IgE) (protein)
chain: EVQLLESGGGLVQPGGSLRLSCAASGFTFSLFTMSWVRQAPGKGLEWVSAISGSGGSTYYADSVKGRFTISRDNSKNTLYLQMNSLRAEDTAVYYCAKSTHLYLFDYWGQGTLVTVSSGGGGSGGGGSGGGGEIVLTQSPGTLSLSPGERATLSCRASQSVSMPFLAWYQQKPGQAPRLLIYGASSRATGIPDRFSGSGSGTDFTLTISRLEPEDFAVYYCQQMRGRPPTFGQGTKVEIKSGGSGGPRAAPEVYAFATPEWPGSRDKRTLACLIQNFMPEDISVQWLHNEVQLPDARHSTTQPRKTKGSGFFVFSRLEVTRAEWEQKDEFICRAVHEAASPSQTVQRAVSVNPESSRRGGC
B2: muTNFR-Fc: extracellular part of the murine p75-TNF receptor appended at the N-terminus of a murine IgG1 Fc portion; murine version of Enbrel (protein)
chain: VPAQVVLTPYKPEPGYECQISQEYYDRKAQMCCAKCPPGQYVKHFCNKTSDTVCADCEASMYTQVWNQFRTCLSCSSSCTTDQVEIRACTKQQNRVCACEAGRYCALKTHSGSCRQCMRLSKCGPGFGVASSRAPNGNVLCKACAPGTFSDTTSSTDVCRPHRICSILAIPGNASTDAVCAPESPTLSAIPRTLYVSQPEPTRSQPLDQEPGPSQTPSILTSLGSTPIIEQSTKGGVPRDCGCKPCICTVPEVSSVFIFPPKPKDVLTITLTPKVTCVVVDISKDDPEVQFSWFVDDVEVHTAQTKPREEQFNSTFRSVSELPIMHQDWLNGKEFKCRVNSAAFPAPIEKTISKTKGRPKAPQVYTIPPPKEQMAKDKVSLTCMITDFFPEDITVEWQWNGQPAENYKNTQPIMDTDGSYFVYSKLNVQKSNWEAGNTFTCSVLHEGLHNHHTEKSLSHSPGK

Legend:
[1] = target: T1, EDA in the pancreas of diabetic mice (Mus musculus, UniProt P11276); assay: Immunofluorescence staining of pancreas of diabetic mice; details: antibodies in SIP format, 2 μg/ml
T1 construct: from tissue; host or cells: pancreas of streptozotocin-treated diabetic C57BL/6J mice (frozen sections)
Experimental: Type 1 diabetes is an autoimmune disease characterized by progressive destruction of pancreatic beta-cells. IL4 has been previously proposed as a potential medicament for preventing diabetes mellitus type 1 (Walz et al. 2002). Six week old C57BL/6J male mice were treated for 5 consecutive days with Streptozotocin (50 mg/kg by intraperitoneal [i.p.] injection). Blood glucose levels were recorded daily and mice were deemed diabetic if their non-fasted blood glucose levels were >300-400 mg/decilitre (dL). Pancreatic tissue was collected from the diabetic mice and snap frozen before cutting and staining. The staining procedure was performed according to the method set out in Pfaffen et al., Eur. J. Nucl. Med. Mol. Imaging (2010). Briefly, purified antibodies in SIP format (2 μg/ml), including antibody F8 (SEQ ID NO: 69), were added onto the sections and detected with a rabbit […] antibody (Dako). A further incubation with the fluorescently labelled goat anti-rabbit IgG Alexa Fluor 488 antibody (Life Technologies) was performed prior to imaging. Blood vessels and cell nuclei were detected using a rat anti-mouse CD31 antibody (BD Bioscience) followed incubation with a donkey anti-rat Alexa 594 antibody (Life Technologies), and DAPI, respectively. The filled white arrows in FIG. 19 indicate CD31^+ blood vessels. […]

[2] = system: imiquimod (IMQ)-induced ear inflammation in C57BL/6 mice; assay: IMQ-induced inflammation model of psoriasis; assay type: in vivo, mouse; details: day 13
Experimental: C57BL/6 mice (Charles River, Germany) were treated on each side of each ear with 5 mg Aldara cream (containing 0.25 mg Imiquimod). The treatment schedule is illustrated in FIG. 11A. The Aldara cream was applied every day for 5 days (on day 1, 2, 3, 4 5 and […]: each application is illustrated by an asterisk in FIG. 11A). Ear thickness was measured with a caliper before the application of the cream. […] Treatment was repeated on day 9 and 11 (each treatment event is illustrated by an arrow in FIG. 11A).

[3] = system: CHS-induced ear inflammation in K14-VEGF-A mice; assay: Contact hypersensitivity-induced ear inflammation in K14-VEGF-A mice; assay type: in vivo, mouse; details: day 15
Source text: A delayed-type hypersensitivity reaction was induced in the ear skin of female FVB mice that overexpress VEGF-A in the epidermis under control of the human keratin 14 promoter as previously described (Detmar et al., 1998; Kunstfeld et al., 2004; Xia et al., 2003). Heterozygous VEGF-A transgenic mice with no pre-existing inflammatory lesions were sensitized by topical application of a 2% oxazolone (4-ethoxymethylene-2-phenyl-2-oxazoline-5-one; Sigma) solution in acetone/olive oil (4:1 vol/vol) to the shaved abdomen (50 μl) and each paw (5 μl). Five days after sensitization, the ears were challenged by topical application of 20 μl of a 1% oxazolone solution. Therapy was started on day 7 and repeated at day 9, 11 and 13. […] Ear thickness was measured every other day and at day 15, mice were sacrificed and ear draining lymph nodes were weighted. The timeline for this experiment is illustrated in FIG. 13A. Each treatment event is indicated by an arrow.

[4] = target: T2, TNF (Homo sapiens, UniProt P01375); assay: Inhibition of TNF-mediated killing of LM fibroblasts; assay type: cell-based, mouse
T2 construct: host or cells: LM fibroblasts (mouse) as indicator cells
Source text: The murine fusion protein muTNFR-Fc (extracellular part of the murine p75-TNF receptor appended at the N-terminus of a murine IgG1 Fc portion, containing the hinge region) was expressed by stable transfection in CHO cells, according to the supplier's protocol. The fusion protein was purified from the culture supernatant by protein A chromatography, yielding a preparation which was pure in SDS-PAGE analysis and size exclusion chromatography (see FIGS. 2A and B). The biological activity of muTNFR-Fc was tested by inhibition of TNF-mediated killing of LM fibroblasts (see FIG. 2C). TNF inhibitors such as Enbrel™ and Humeira™ represent the standard of care in rheumatoid arthritis patients. muTNFR-Fc is a murine version of a TNF inhibitor for use in mouse models of the disease.

T1 sequence (P11276 33-2477): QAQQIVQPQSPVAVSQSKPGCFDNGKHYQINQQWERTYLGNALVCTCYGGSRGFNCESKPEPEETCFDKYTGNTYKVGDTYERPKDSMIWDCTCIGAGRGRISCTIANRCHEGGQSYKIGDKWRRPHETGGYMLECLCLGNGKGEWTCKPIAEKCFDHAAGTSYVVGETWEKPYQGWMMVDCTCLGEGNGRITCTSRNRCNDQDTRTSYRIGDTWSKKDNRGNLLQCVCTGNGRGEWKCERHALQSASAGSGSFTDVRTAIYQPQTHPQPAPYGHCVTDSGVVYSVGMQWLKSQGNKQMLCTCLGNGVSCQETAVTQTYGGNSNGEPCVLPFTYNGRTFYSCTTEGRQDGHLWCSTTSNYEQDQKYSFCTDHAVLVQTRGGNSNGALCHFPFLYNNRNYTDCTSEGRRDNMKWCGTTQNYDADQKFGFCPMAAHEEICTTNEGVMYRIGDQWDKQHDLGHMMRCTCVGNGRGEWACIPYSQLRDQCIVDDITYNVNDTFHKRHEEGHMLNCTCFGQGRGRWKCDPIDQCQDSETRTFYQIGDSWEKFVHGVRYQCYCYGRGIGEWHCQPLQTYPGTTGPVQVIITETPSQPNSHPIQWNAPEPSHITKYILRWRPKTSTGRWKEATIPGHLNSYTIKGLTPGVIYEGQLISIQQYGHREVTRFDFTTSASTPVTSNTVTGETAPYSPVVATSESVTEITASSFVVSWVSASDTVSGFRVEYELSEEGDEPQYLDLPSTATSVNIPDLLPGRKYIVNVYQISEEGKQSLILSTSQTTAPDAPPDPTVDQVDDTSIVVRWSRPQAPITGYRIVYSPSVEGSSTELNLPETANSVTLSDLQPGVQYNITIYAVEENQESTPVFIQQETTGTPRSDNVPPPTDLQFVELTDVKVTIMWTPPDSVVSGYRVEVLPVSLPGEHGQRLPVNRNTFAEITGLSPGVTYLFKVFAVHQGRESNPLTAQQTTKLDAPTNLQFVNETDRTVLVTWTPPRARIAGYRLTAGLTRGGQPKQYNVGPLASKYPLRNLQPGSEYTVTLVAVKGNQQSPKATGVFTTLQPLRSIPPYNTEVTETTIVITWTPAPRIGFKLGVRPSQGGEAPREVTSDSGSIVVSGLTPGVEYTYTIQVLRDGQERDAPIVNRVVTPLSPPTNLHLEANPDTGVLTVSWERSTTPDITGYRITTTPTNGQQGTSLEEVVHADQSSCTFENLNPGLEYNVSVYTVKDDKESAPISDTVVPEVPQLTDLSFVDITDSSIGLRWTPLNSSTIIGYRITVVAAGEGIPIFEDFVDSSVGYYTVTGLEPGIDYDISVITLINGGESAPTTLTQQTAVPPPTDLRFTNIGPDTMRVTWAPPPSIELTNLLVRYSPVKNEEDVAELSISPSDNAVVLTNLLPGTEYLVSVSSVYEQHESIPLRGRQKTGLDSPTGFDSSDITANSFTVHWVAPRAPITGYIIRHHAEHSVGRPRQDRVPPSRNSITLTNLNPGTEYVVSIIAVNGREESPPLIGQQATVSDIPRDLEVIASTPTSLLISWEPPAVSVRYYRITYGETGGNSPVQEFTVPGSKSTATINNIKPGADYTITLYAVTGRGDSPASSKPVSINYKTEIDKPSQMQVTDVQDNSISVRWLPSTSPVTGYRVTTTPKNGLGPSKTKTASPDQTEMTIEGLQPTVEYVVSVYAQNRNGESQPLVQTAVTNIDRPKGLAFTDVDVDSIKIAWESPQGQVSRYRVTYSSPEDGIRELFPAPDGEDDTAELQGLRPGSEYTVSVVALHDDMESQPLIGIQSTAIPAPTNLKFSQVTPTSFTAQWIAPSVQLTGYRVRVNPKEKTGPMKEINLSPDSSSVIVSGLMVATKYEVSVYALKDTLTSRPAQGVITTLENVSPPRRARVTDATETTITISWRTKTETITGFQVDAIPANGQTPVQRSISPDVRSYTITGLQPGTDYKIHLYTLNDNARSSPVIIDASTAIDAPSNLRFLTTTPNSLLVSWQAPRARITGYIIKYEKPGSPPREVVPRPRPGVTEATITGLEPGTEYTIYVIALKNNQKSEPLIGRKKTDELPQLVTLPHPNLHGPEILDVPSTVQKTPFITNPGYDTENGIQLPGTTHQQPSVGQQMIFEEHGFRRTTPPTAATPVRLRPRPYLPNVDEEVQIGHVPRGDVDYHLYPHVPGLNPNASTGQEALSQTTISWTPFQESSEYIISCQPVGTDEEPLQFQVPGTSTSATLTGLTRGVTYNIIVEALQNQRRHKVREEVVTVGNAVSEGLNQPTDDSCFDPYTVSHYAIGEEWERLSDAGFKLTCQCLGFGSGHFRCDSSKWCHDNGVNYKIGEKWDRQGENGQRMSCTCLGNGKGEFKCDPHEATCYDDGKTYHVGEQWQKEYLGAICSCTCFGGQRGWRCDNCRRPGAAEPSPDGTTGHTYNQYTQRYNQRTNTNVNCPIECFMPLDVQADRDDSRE
T2 sequence (P01375 77-233 limits assumed, species assumed): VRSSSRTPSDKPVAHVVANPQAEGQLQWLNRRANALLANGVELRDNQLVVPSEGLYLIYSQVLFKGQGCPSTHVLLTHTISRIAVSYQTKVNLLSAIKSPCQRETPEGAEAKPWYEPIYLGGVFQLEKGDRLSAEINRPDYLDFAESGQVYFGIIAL

Molecule	colocalization of staining with CD31+ blood vessels [1]	ear draining lymph nodes (weight) [2]	ear draining lymph nodes (weight) [3]	inhibition of TNF induced killing of mouse fibroblasts [4]
B1	colocalization of EDA and CD31 in the pancreas of diabetic mice	–	–	–
B2	–	smaller	smaller	inhibits TNF induced killing of mouse fibroblasts
